Laboratory results from patent US8530168B2, “Fusion protein comprising a Caspase domain and a nuclear hormone receptor binding domain and methods and uses thereof” (Helmholtz Zentrum Munich Deutsches Forschungszentrum fuer …, priority 2007, dated 2013).

B1: myrCasp8-ER(T2): murine Caspase-8 domain with N-terminal myristoylation motif fused to ER(T2) ligand binding domain, SEQ ID NO: 23 (protein)
chain: MGSSKSKPKDPSQRSESRTSDKVYQMKNKPRGYCLIINNHDFSKAREDITQLRKMKDRKGTDCDKEALSKTFKELHFEIVSYDDCTANEIHEILEGYQSADHKNKDCFICCILSHGDKGVVYGTDGKEASIYDLTSYFTGSKCPSLSGKPKIFFIQACQGSNFQKGVPDEAGFEQQNHTLEVDSSSHKNYIPDEADFLLGMATVKNCVSYRDPVNGTWYIQSLCQSLRERCPQGDDILSILTGVNYDVSNKDDRRNKGKQMPQPTFTLRKKLFFPPLEPSAGDMRAANLWPSPLMIKRSKKNSLALSLTADQMVSALLDAEPPILYSEYDPTRPFSEASMMGLLTNLADRELVHMINWAKRVPGFVDLTLHDQVHLLECAWLEILMIGLVWRSMEHPVKLLFAPNLLLDRNQGKCVEGMVEIFDMLLATSSRFRMMNLQGEEFVCLKSIILLNSGVYTFLSSTLKSLEEKDHIHRVLDKITDTLIHLMAKAGLTLQQQHQRLAQLLLILSHIRHMSNKGMEHLYSMKCKNVVPLYDLLLEAADAHRLHAPTSRGGASVEETDQSHLATAGSTSSHSLQKYYITGEAEGFPATA
modifications: N-terminal myristoylation motif; fusion protein myrCasp8-ER(T2)
B2: Cre-ER(T2): fusion of Cre recombinase to ER(T2) ligand binding domain, negative control, SEQ ID NO: 5 (protein)
chain: MSNLLTVHQNLPALPVDATSDEVRKNLMDMFRDRQAFSEHTWKMLLSVCRSWAAWCKLNNRKWFPAEPEDVRDYLLYLQARGLAVKTIQQHLGQLNMLHRRSGLPRPSDSNAVSLVMRRIRKENVDAGERAKQALAFERTDFDQVRSLMENSDRCQDIRNLAFLGIAYNTLLRIAEIARIRVKDISRTDGGRMLIHIGRTKTLVSTAGVEKALSLGVTKLVERWISVSGVADDPNNYLFCRVRKNGVAAPSATSQLSTRALEGIFEATHRLIYGAKDDSGQRYLAWSGHSARVGAARDMARAGVSIPEIMQAGGWTNVNIVMNYIRNLDSETGAMVRLLEDGDLEPSAGDMRAANLWPSPLMIKRSKKNSLALSLTADQMVSALLDAEPPILYSEYDPTRPFSEASMMGLLTNLADRELVHMINWAKRVPGFVDLTLHDQVHLLECAWLEILMIGLVWRSMEHPVKLLFAPNLLLDRNQGKCVEGMVEIFDMLLATSSRFRMMNLQGEEFVCLKSIILLNSGVYTFLSSTLKSLEEKDHIHRVLDKITDTLIHLMAKAGLTLQQQHQRLAQLLLILSHIRHMSNKGMEHLYSMKCKNVVPLYDLLLEAADAHRLHAPTSRGGASVEETDQSHLATAGSTSSHSLQKYYITGEAEGFPATA
modifications: fusion protein Cre-ER(T2)
B3: Casp9full-ER(T2): full length murine Caspase-9 fused to ER(T2) ligand binding domain, SEQ ID NO: 29 (protein)
chain: MDEADRQLLRRCRVRLVSELQVAELWDALLSRELFTRDMIEDIQQAGSGSRRDQARQLVTDLETRGRQALPLFISCLEDTGQGTLASLLQSGRQAAKQDPEAVKPLDHLVPVVLGPMGLTAKEQRVVKLDPSQPAVGNLTPVVLGPEELWPARLKPEVLRPETPRPVDIGSGGAHDVCVPGKIRGHADMAYTLDSDPCGHCLIINNVNFCPSSGLGTRTGSNLDRDKLEHRFRWLRFMVEVKNDLTAKKMVTALMEMAHRNHRALDCFVVVILSHGCQASHLQFPGAVYGTDGCSVSIEKIVNIFNGSGCPSLGGKPKLFFIQACGGEQKDHGFEVACTSSQGRTLDSDSEPDAVPYQEGPRPLDQLDAVSSLPTPSDILVSYSTFPGFVSWRDKKSGSWYIETLDGILEQWARSEDLQSLLLRVANAVSAKGTYKQIPGCFNFLRKKLFFKTSVEPSAGDMRAANLWPSPLMIKRSKKNSLALSLTADQMVSALLDAEPPILYSEYDPTRPFSEASMMGLLTNLADRELVHMINWAKRVPGFVDLTLHDQVHLLECAWLEILMIGLVWRSMEHPVKLLFAPNLLLDRNQGKCVEGMVEIFDMLLATSSRFRMMNLQGEEFVCLKSIILLNSGVYTFLSSTLKSLEEKDHIHRVLDKITDTLIHLMAKAGLTLQQQHQRLAQLLLILSHIRHMSNKGMEHLYSMKCKNVVPLYDLLLEAADAHRLHAPTSRGGASVEETDQSHLATAGSTSSHSLQKYYITGEAEGFPATA
modifications: fusion protein Casp9full-ER(T2)
B4: Casp8-ER(T2): fusion of murine Caspase-8 domain to the ER(T2) ligand binding domain, SEQ ID NO: 20 (protein)
chain: MSESRTSDKVYQMKNKPRGYCLIINNHDFSKAREDITQLRKMKDRKGTDCDKEALSKTFKELHFEIVSYDDCTANEIHEILEGYQSADHKNKDCFICCILSHGDKGVVYGTDGKEASIYDLTSYFTGSKCPSLSGKPKIFFIQACQGSNFQKGVPDEAGFEQQNHTLEVDSSSHKNYIPDEADFLLGMATVKNCVSYRDPVNGTWYIQSLCQSLRERCPQGDDILSILTGVNYDVSNKDDRRNKGKQMPQPTFTLRKKLFFPPLEPSAGDMRAANLWPSPLMIKRSKKNSLALSLTADQMVSALLDAEPPILYSEYDPTRPFSEASMMGLLTNLADRELVHMINWAKRVPGFVDLTLHDQVHLLECAWLEILMIGLVWRSMEHPVKLLFAPNLLLDRNQGKCVEGMVEIFDMLLATSSRFRMMNLQGEEFVCLKSIILLNSGVYTFLSSTLKSLEEKDHIHRVLDKITDTLIHLMAKAGLTLQQQHQRLAQLLLILSHIRHMSNKGMEHLYSMKCKNVVPLYDLLLEAADAHRLHAPTSRGGASVEETDQSHLATAGSTSSHSLQKYYITGEAEGFPATA
modifications: fusion protein Casp8-ER(T2)

Tests used:
[1] = tested on: MEF5/N9 cells; test: Visible phenotypic changes / viability of stably transfected MEF5/N9 clones on 4-OH-tamoxifen treatment; format: cell-based, mouse; settings: 10^−8 M 4-OH-tamoxifen, 24 h
Procedure, shortened: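 Hygromycin-selected MEF5/N9 clones stably expressing ER(T2) fusion proteins were plated at 1·10^5 cells/well and next day given 10^−8 M 4-hydroxy-tamoxifen. Cell death was judged from phase-contrast micrographs at 10- or 20-fold magnification taken 24 h after induction.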

[2] = tested on: MEF5/N9 cells; test: TUNEL in situ cell death detection assay of MEF5/N9 clones; format: cell-based, mouse; settings: 10^−8 M 4-OH-tamoxifen; for TUNEL result / apoptotic morphology (in words): 3 or 7 hours; for incubation time with 4-OH-tamoxifen at which TUNEL positive cells were detected: fixation at 2, 3, 5 and 7 hours
Excerpt: TUNEL, or terminal deoxynucleotidyl transferase-mediated dUTP nick end-labeling, is acknowledged as a method of choice in the rapid detection of DNA fragmentation that results from apoptotic signaling cascades (Gavrieli et al., J. Cell Biol., 119(3), 493-501 (1992)). Cleavage of genomic DNA during apoptosis may yield double-stranded, low molecular weight DNA fragments as well as single strand breaks (“nicks”) in high molecular weight DNA. Those DNA strand breaks can be identified by terminal deoxynucleotidyl transferase (TdT), which catalyzes polymerization of labeled nucleotides to free 3′-OH DNA ends in a template-independent manner. To detect 4-OH-tamoxifen induced cell death in MEF5/N9 cells, we applied the In Situ Cell Death Detection Kit, POD by Roche according to the manufacturer's instructions. Incorporated fluorescein is detected by anti-fluorescein antibody, conjugated with horse-radish peroxidase (POD). After substrate reaction, stained cells can be analyzed under light microscopy.
Two days prior to the TUNEL staining, round glass cover slips ([…]) were sterilized with 70% EtOH, dried under laminar flow and coated with Poly-L-lysine at a concentration of 50 μg/ml over night at 37° C., which allows a better attachment of cells on the cover slips. The following day, the cover slips were rinsed 3 times with PBS and dried for 1 hour under laminar flow. 2.5·10^5 cells were seeded onto cover slips in a 6-well plate. On the test day, medium was replaced either by fresh medium or medium supplemented with 10^−8 M 4-OH-tamoxifen. […] After fixation, cells were rinsed three times in PBS, covered with 100% methanol and incubated for 10 min or over night in a freezer and rinsed in PBS. Endogenous peroxidase activity was blocked by immersing cover slips for 10 min in 3% H2O2 in methanol prior to cell permeabilization. Cells were subsequently rinsed with PBS and incubated in permeabilization solution (0.1% Triton X-100 in freshly prepared 0.1% sodium citrate) for 2 min on ice. To generate a positive control, DNA strand breaks were induced by incubating permeabilized cells with 2 U/ml DNase I in 50 mM Tris-HCl, pH 7.5, 10 mM MgCl2, 1 mg/ml BSA for 10 min at room temperature, prior to labeling procedure. Cover slips were rinsed twice with PBS before incubating each sample with 25 μl TUNEL reaction mixture for 60 min at 37° C. in a humidified atmosphere in the dark. To avoid evaporative loss, cover slips were covered with parafilm. For a negative control 25 μl of Label solution without enzyme solution were added. Following labeling, cover slips were rinsed 3 times with PBS for 10 min each. To convert the fluorescence signal to a chromogenic signal, 25 μl of the POD solution were added on each sample which was covered with parafilm and incubated in a humidified chamber for 30 min at 37° C. Subsequently, cover slips were rinsed 3 times with PBS and incubated in freshly prepared 0.05% DAB in 0.1 M Tris-HCl (pH 7.4) supplemented with 0.02% H2O2 for 10-20 min at room temperature. The conversion procedure was controlled under a light microscope. The reaction was stopped with PBS until brown precipitates were well visible inside the cells. To remove DAB, cover slips were rinsed several times in PBS. Optionally, nuclear staining was performed by incubating cover slips for 15 min in 2.5 μg/ml DAPI diluted in PBS. Cover slips were mounted with a water-soluble, non-fluorescing mounting medium (Aqua-Poly/Mount; Polysciences Inc., Eppelheim, Germany) under SuperFrost slides (VWR International). Prior to the analysis of the samples under a light microscope, mounting medium was dried for 24 hours at room temperature.
To provide direct evidence for 4-OH-tamoxifen-induced apoptosis in MEF5/N9 clones expressing Caspase-8 or -9 fusion proteins, an in situ application of the TUNEL assay was performed. This method detects DNA fragmentation, one of the late events that result from apoptotic signaling cascades. […]

Row | Molecule | 4-OH-tamoxifen-dependent cell death, phenotype of stable clones [1] | 4-OH-tamoxifen-dependent cell death, phenotype of stable clones ([1]; listed as myrCasp8ER) | TUNEL result / apoptotic morphology (in words) [2] | incubation time with 4-OH-tamoxifen at which TUNEL positive cells were detected [2] [h] | 4-OH-tamoxifen-dependent cell death, phenotype of stable clones ([1]; listed as CreER) | 4-OH-tamoxifen-dependent cell death, phenotype of stable clones ([1]; listed as Casp9fullER) | 4-OH-tamoxifen-dependent cell death, phenotype of stable clones ([1]; listed as Casp8ER)
1 | B1 | died in the presence of 4-OH-tamoxifen within 24 h | substantial cell death | typical apoptotic morphology | 3 |  |  | 
2 | B2 | did not respond to 4-OH-tamoxifen |  | TUNEL negative at any point in time |  | not affected by the treatment with 4-OH-tamoxifen |  | 
3 | B3 | died in the presence of 4-OH-tamoxifen within 24 h |  | typical apoptotic morphology | 3 |  | substantial cell death | 
4 | B4 | died in the presence of 4-OH-tamoxifen within 24 h |  | typical apoptotic morphology | 7 |  |  | substantial cell death
